Data as given in US20210221908A1 (LAMKAP BIO BETA, published 2021).

T1: human CEACAM5 on MKN-45 cells (human, UniProt P06731 35-685)
T1 construct: endogenous CEA of MKN-45 gastric adenocarcinoma cells, which also carry CD47 and CEACAM6; UniProtKB P06731; also called CD66e
T1 sequence: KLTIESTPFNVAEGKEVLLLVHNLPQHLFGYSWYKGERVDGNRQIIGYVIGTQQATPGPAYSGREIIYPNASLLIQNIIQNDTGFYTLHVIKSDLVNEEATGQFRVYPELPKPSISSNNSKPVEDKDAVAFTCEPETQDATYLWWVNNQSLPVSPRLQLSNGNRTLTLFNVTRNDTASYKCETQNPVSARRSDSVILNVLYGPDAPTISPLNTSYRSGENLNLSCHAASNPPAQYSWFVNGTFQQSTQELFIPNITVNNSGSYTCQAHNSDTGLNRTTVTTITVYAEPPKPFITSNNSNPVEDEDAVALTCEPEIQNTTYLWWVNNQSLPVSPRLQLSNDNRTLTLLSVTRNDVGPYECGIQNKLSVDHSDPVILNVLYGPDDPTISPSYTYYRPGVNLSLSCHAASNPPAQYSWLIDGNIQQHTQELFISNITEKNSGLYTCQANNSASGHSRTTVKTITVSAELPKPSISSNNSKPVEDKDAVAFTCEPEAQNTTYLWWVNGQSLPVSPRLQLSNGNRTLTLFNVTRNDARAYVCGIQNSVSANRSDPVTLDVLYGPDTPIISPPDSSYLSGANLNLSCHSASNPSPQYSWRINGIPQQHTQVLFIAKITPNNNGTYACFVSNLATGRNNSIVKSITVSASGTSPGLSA

T2: commercial shed CEA (BioRad) (human, UniProt P06731 35-685, limits assumed)
T2 sequence: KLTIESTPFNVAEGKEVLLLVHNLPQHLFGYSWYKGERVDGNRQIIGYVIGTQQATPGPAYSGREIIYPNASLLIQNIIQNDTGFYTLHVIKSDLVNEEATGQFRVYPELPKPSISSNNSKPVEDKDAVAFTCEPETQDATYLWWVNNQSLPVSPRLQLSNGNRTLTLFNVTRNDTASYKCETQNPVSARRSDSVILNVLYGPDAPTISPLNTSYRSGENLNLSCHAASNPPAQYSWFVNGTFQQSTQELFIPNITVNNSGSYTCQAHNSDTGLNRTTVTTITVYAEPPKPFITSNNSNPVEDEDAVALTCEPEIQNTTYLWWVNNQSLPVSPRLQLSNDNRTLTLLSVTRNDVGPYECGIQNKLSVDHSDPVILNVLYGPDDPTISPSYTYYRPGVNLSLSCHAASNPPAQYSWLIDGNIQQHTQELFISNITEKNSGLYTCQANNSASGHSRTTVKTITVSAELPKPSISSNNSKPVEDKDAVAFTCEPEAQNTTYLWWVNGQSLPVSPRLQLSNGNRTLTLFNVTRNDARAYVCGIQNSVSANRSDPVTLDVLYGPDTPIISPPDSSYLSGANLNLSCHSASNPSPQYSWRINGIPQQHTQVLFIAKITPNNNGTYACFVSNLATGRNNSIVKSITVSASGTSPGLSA

T3: human CEACAM6 on MKN-45 cells (human, UniProt P40199 35-320)
T3 construct: whole, on cells
T3 sequence (looked up): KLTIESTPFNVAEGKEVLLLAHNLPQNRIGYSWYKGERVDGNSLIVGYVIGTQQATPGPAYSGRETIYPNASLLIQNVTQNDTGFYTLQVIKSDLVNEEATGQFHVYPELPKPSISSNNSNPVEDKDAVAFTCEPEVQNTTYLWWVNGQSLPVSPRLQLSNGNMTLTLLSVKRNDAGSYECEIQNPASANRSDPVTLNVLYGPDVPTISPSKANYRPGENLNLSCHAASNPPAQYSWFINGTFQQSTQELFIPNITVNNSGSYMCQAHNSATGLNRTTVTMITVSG


Tests used:
[1] = biological target: T1, human CEACAM5 on MKN-45 cells; test: flow cytometry on MKN45 CEA+ cancer cells (also carry CD47)
Experimental: (§1) Cells are harvested, counted, checked for viability and resuspended at 3×10⁶ cells/ml in FACS buffer (PBS 2% BSA, 0.1% NaN3). 100 μl of the cell suspension are distributed in V-bottom 96-well plates (3×10⁵ cells/well). The supernatant is removed by centrifugation 3 minutes at 4° C., 1300 rpm. Increasing concentrations of the antibody according to the invention are then added into the wells and incubated for 15 minutes at 4° C. Cells are washed twice with cold FACS buffer and re-incubated for further 15 minutes at 4° C. with the PE (R-phycoerythrin)-conjugated mouse anti-human IgG Fc secondary antibody (SouthernBiotech, pre-diluted 1:100 in FACS buffer). Cells are washed twice with cold FACS buffer and resuspended in 300 μl FACS buffer with 1:15000-diluted SytoxBlue (Life Technologies). Fluorescence is measured using a Cytoflex […]. Binding curves and EC50 values are obtained and calculated using GraphPad Prism? software. In the same manner binding of MAB CEA or MAB CEA1 to MKN-45 cells can be tested.

[2] = biological target: T4, human CD47 on MKN45 cells (human, UniProt Q08722 19-323); test: inhibition of SIRPα-mouseFc binding to CD47 on MKN45 cells, imaging (CX5); column 'SIRPα inhibition potency'
T4 construct: whole, on cells; also called IAP
Source text: Experimental set-up for the measurement of the SIRPα inhibition potency data shown for bispecific antibodies of this invention (results see table 2):
The detection of bound SIRPα cell-based assay monitoring the interaction of soluble SIRPα with human CD47 expressed at the surface of MKN45 is used for the detection of the blocking activity. Dose-response experiments with bispecific antibodies according to the invention allow determination of an IC50 value.
MKN45 cancer cells, expressing both CD47 and CEACAM5, are stained with CFSE violet to allow the imaging system (CX5) to detect the cells. Briefly, 3,000 stained MKN45 cells per well are seeded in a 384 optical well plate (Costar) and incubated for 50 minutes with increased concentrations of bispecific antibodies of the invention (1.9 pM to 333 nM, in quadruplicates). Then, a fixe concentration of SIRPα—mouseFc premixed with anti-mouse IgG-Fc AF647 coupled antibody (Jackson Immunoresearch diluted 1:2000) is added at 50 ng/mL final. After an incubation of 3H30 plates are acquired with the imaging system (CX5, Thermofisher) and fluorescence signals emitted by the detected bound SIRPα is recorded by the software dedicated to the imaging system. Fluorescence signals are plotted according to the dose range tested and IC50 are calculated by the software (Prism, Graphpad).

[3] = biological target: T2, commercial shed CEA (BioRad); test: cell-based or functional assay
[4] = biological target: T1, human CEACAM5 on MKN-45 cells; test: flow cytometry (FACS) on MKN-45 cells, without shed CEA
[5] = biological target: T1, human CEACAM5 on MKN-45 cells; test: flow cytometry on MKN45 CEA+ cancer cells (also carry CD47); MKN45 CEA+ cancer cells
Experimental: as §1

[6] = biological target: T3, human CEACAM6 on MKN-45 cells; test: statement in the legend of FIG. 21A (FACS on MKN-45 cells)
Experimental: Binding to target cells (MKN-45) expressing CD47, CEACAM5 and CEACAM6 was assessed by FACS.
as §1

[7] = biological target: T1, human CEACAM5 on MKN-45 cells; test: flow cytometry (FACS) on MKN-45 cells, which express CD47, CEACAM5 and CEACAM6

EC50 [1]	IC50 [2]	shift of EC50 of the phagocytosis index curve of MKN-45 cells by 200 ng/mL shed CEA (FIG. 20B) [3]	EC50 (read off the curve) [4]	EC50 [5]	binding result [6]	EC50 (read off the curve) [7]	Binder
12.5 nM	0.86 nM	–	–	–	–	–	K2AC27 CEAxCD47 bispecific antibody (bispecific antibody, human IgG1, kappa, lambda, kappa-lambda body, human IgG1, common heavy chain; CEA arm light chain 2C11 (AC27)) heavy: not shown light 1: not shown light 2: QSVLTQPPSVSGAPGQRVTISCTGSSSNIGYADKVHWYQQLPGTAPKLLIYNNSDRPSGVPDRFSGSKSGTSASLAITGLQAEDEADYYCQSYDGYNMLTAVFGGGTKLTVLGQPKAAPSVTLFPPSSEELQANKATLVCLISDFYPGAVTVAWKADSSPVKAGVETTTPSKQSNNKYAASSYLSLTPEQWKSHRSYSCQVTHEGSTVEKTVAPTECS
52.5 nM	0.95 nM	–	–	–	–	–	K2AC28 CEAxCD47 bispecific antibody (bispecific antibody, human IgG1, kappa, lambda, kappa-lambda body, human IgG1, common heavy chain; CEA arm light chain C11 (AC28)) heavy: not shown light 1: not shown light 2: NFMLTQPHSVSESPGKTVTISCTRSSGSINDITVHWYQQRPGSSPTTVIYGYNARPSGVPDRFSGSIDSSSNSASLTISGLKTEDEADYYCQSWDGHGSAYVFGGGTKLTVLGQPKAAPSVTLFPPSSEELQANKATLVCLISDFYPGAVTVAWKADSSPVKAGVETTTPSKQSNNKYAASSYLSLTPEQWKSHRSYSCQVTHEGSTVEKTVAPTECS
–	0.4 nM	< 4 fold	~0.3 µg/mL	11.3 nM	–	–	K2AC5 CEAxCD47 bispecific antibody (bispecific antibody, human IgG1, kappa, lambda, kappa-lambda body, human IgG1, common heavy chain; CD47 arm light chain KA3 (K2), CEA arm light chain 1D9 (AC5)) heavy: not shown light 1: not shown light 2: QSVLTQPPSVSAAPGQKVTISCSGSSSNIGYGLVSWYQQLPGTAPKLLIYAGNLRPSGIPDRFSGSKSGTSATLGITGLQTGDEADYYCGTWDFNYGVVFGGGTKLTVLGQPKAAPSVTLFPPSSEELQANKATLVCLISDFYPGAVTVAWKADSSPVKAGVETTTPSKQSNNKYAASSYLSLTPEQWKSHRSYSCQVTHEGSTVEKTVAPTECS
16.5 nM	0.37 nM	< 4 fold	–	–	no binding	~1 µg/mL	K2AC22 CEAxCD47 bispecific antibody (bispecific antibody, human IgG1, kappa, lambda, kappa-lambda body, human IgG1, common heavy chain; CEA arm light chain 1G6 (AC22)) heavy: not shown light 1: not shown light 2: QSVLTQPPSVSAAPGQKVTISCSGSSSNIANGIVSWYQQLPGTAPKLLIYFDNLRPSGIPDRFSGSKSGTSATLGITGLQTGDEADYYCGTWDFSYGIVFGGGTKLTVLGQPKAAPSVTLFPPSSEELQANKATLVCLISDFYPGAVTVAWKADSSPVKAGVETTTPSKQSNNKYAASSYLSLTPEQWKSHRSYSCQVTHEGSTVEKTVAPTECS
190 nM	4 nM	–	–	–	–	–	K2AC13 CEAxCD47 bispecific antibody (bispecific antibody, human IgG1, kappa, lambda, kappa-lambda body, human IgG1, common heavy chain; CEA arm light chain 2B8 (AC13)) heavy: not shown light 1: not shown light 2: QSALTQPASVSGSPGQSITISCTGTSSNVRYAAGVSWYQQHPGKAPKLMIYEVSNRPSGVSNRFSGSKSGNTASLTISGLQAEDEADYYCSSWDFEHGPAAKVFGGGTKLTVLGQPKAAPSVTLFPPSSEELQANKATLVCLISDFYPGAVTVAWKADSSPVKAGVETTTPSKQSNNKYAASSYLSLTPEQWKSHRSYSCQVTHEGSTVEKTVAPTECS
